B1: Ubc2 (yeast) (enzyme, Saccharomyces cerevisiae, UniProt P06104 1-172, looked up)
chain: MSTPARRRLMRDFKRMKEDAPPGVSASPLPDNVMVWNAMIIGPADTPYEDGTFRLLLEFDEEYPNKPPHVKFLSEMFHPNVYANGEICLDILQNRWTPTYDVASILTSIQSLFNDPNPASPANVEAATLFKDHKSQYVKRVKETVEKSWEDDMDDMDDDDDDDDDDDDDEAD
B2: U2BR peptide (Ubr1 1165-1200) (peptide, UniProt P19812 1165-1200, looked up)
peptide: KERKRRLAKKHQARLLAKFNNQQTKFMKEHESEFDE

Experiments:
[1] = molecular target: Ubr1 (yeast, FLAG-tagged) (Saccharomyces cerevisiae, UniProt P19812 1-1950); test: cryo-EM structure
Ubc2 (yeast) = molecular target: B1; test: ITC

Sequence of Ubr1 (yeast, FLAG-tagged) (P19812 whole entry): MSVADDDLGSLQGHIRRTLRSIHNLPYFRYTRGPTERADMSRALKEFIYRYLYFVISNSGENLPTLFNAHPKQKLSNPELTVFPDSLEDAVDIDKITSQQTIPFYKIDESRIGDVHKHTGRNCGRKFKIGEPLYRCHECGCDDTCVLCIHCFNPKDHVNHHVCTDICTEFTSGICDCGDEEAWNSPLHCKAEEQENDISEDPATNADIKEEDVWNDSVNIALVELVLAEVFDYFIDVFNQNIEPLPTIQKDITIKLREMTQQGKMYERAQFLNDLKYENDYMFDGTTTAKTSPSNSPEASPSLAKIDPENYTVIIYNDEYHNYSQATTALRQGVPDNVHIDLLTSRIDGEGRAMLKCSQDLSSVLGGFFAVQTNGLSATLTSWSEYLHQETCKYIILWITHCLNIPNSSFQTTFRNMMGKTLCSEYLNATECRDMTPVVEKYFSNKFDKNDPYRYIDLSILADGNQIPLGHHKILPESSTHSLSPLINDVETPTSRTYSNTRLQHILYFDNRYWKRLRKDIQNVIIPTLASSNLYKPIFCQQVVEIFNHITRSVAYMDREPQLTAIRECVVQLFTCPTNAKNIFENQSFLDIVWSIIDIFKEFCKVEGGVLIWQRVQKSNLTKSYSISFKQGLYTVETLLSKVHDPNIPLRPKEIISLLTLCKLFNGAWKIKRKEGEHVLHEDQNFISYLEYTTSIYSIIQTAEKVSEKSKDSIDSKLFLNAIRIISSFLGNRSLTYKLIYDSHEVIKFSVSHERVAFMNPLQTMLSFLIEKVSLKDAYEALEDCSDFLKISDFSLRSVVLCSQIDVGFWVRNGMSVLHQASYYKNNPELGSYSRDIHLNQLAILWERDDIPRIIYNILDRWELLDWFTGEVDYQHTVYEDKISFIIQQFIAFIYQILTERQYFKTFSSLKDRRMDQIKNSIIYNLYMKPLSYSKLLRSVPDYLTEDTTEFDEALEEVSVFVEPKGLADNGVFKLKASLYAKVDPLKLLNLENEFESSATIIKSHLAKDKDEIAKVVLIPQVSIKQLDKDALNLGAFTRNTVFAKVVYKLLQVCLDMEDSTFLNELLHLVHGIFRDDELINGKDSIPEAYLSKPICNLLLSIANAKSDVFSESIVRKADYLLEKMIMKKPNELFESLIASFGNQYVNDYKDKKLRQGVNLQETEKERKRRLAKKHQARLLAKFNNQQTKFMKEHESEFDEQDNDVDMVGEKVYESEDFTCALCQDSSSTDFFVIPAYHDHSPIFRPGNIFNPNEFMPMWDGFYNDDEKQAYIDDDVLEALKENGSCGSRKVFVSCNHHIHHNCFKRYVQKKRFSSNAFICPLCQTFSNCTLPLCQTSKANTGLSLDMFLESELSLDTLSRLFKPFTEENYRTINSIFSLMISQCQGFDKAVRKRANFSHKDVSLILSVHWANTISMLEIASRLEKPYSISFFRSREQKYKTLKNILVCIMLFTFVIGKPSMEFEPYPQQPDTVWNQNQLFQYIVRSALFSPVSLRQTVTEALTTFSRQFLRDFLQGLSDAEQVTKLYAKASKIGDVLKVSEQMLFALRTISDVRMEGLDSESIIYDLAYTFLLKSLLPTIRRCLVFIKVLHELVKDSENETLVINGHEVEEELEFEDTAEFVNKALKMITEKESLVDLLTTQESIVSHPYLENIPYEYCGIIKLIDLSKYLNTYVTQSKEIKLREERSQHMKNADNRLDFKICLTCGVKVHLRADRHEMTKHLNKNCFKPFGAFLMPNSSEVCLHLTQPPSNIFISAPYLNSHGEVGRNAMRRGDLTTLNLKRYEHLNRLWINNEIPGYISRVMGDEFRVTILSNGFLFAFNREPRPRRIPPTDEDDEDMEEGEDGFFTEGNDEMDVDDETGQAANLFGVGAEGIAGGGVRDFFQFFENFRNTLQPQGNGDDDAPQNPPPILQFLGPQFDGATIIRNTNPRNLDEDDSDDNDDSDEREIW

Binder	binding result [1]	Kd (Ubc2 (yeast))
B1	binds	
B2		0.143 ± 0.045 µM

Source: doi:10.1101/2021.04.12.439291 (bioRxiv, 2021)
